This data set addresses T1, His6-NhaR (Escherichia coli MG1655?) (UniProt P0A9G2).
T1 sequence: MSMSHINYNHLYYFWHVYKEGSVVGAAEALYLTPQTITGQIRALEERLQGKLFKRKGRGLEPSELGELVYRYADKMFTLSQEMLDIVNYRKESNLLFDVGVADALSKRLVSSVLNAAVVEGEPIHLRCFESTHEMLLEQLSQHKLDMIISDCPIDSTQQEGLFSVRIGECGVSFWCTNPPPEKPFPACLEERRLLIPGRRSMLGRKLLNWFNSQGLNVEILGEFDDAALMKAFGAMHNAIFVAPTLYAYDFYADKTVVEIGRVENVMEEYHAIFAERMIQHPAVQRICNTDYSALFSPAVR
As to the kind of experiment: EMSA. Conditions: NhaR EMSA: 20 mM Tris-HCl pH 8.0, 100 mM NaCl, 1 mM DTT, 10% glycerol, 125 ug/mL BSA, 10 ng DNA in 10 uL, 25 C 20 min; Fis: 10 mM Tris-HCl pH 8.0, 150 mM NaCl …. In general terms: In EMSA bound probe runs differently from free probe, usually more slowly.

“CAATTAAATCCGTGAGTGCCGTAGCGCAGCCTTTCATCAGGACTTTCGAAAAATCCGAAATCATGCATCGGAATTTACTGATTTAATTATTTTAATCCTAATTTATTTTGAAAAAGGCATTGGGATTTATGCCGTATTCCTGAAGA (double strand) [PpgaA]”: the binding result is given as “binds”.

As for “CCGTCAAAAACGCATCTCACCGCTGATGGCGCAAATTCTTCAATAGCTCGTAAAAAACGAATTATTCCTACACTATAATCTGATTTTAACGATGATTCGTGCGGGGTAAAATAGTAAAAACGATCTATTCACCTGAAAGAGAAATAAAAAGTGAAACATCTGCATCGATTCTTTAGCAGTGATGCCTCGGGA (double strand) [PnhaA]”, the binding entry is given as “binds”.

As for “CCCGGTAATCTATTGTGGGAATTTAATTTAAGTGCAGAAGTAATATTTTCGCCGGATTTTATTCGGAATATCCTGCTTATCCTCGTGCTGTTTCTCACGTAGTCTATAATTTCCTTTTTAAGCCCACAGGAGAGCAAC (double strand) [PosmC]”, the binding entry is recorded as “binds”.

Source of the values: paper PMC10157491.
